Assay results as given in article PMC3701638.

target: α-casein

| Substance | Km of α-casein phosphorylation by the kinase (in vitro kinase assay, Michaelis-Menten fit) [µM] |
| --- | --- |
| GST-CK1δ^(S328A, T397A) (FP1268) (from UniProt Q06486 1-415) (enzyme) | 6.63 |
| GST-CK1δ^(S328A, S370A) (FP1292) (from UniProt Q06486 1-415) (enzyme) | 5.31 |
| GST-CK1δ^T397A (FP1184) (from UniProt Q06486 1-415) (enzyme) | 7.2 |
| GST-CK1δ (FP449), wild-type full length rat CK1δ (from UniProt Q06486 1-415) (enzyme) | 4.84 |
| GST-CK1δ^S328A (FP1267) (from UniProt Q06486 1-415) (enzyme) | 5.49 |
| GST-CK1δ^S370A (FP1030) (from UniProt Q06486 1-415) (enzyme) | 7.38 |
| GST-CK1δ^(S328A, S370A, T397A) (FP1293) (from UniProt Q06486 1-415) (enzyme) | 7.74 |
